# Results from paper PMC12328718.
# Target: T1, SHMT2 K281S-R284S K302S;R305S (UniProt P34897)
# T1 sequence: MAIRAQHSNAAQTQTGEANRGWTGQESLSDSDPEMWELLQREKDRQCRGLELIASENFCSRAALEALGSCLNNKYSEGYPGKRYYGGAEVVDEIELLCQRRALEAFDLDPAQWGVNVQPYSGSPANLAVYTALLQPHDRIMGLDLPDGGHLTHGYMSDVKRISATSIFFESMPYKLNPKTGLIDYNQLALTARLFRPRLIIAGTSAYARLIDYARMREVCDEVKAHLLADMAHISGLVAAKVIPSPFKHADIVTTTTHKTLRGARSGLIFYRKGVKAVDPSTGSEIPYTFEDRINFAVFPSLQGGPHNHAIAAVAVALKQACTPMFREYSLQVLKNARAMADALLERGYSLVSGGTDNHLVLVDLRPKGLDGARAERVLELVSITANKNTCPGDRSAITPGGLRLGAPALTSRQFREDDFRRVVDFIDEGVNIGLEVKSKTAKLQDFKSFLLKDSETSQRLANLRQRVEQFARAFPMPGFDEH
# Assay: EMSA
# Details: EMSA: 20 mM HEPES pH 7.4, 150 mM NaCl, 20 ug/ml BSA, 0.1 ug tRNA, RNase inhibitor, 8% glycerol, 25 C, 30 min; 4% native PAGE in 0.5x TBE
sequence,measurement,value
GGGAUAAAGAAAAAAGCGGUGAGUGGGCGAACUACAAUUCCCAAAAGGCCACAAAGGGGCCACCACUACGCAUGCGUAGAUCCCUCCCGUUAGCUUUGGCGCCUCAGCGAGCUCUUCUCGCGCAUGCGUUCUCCGAACGGUCUUCUUCCGACAGCUUGCUGCCCUAGACCAGAGUUGGUGGCUGGACCUCCUGCGACUUCCGAGUUGCG [UTR2 RNA],Kd,1600 nM
